Source: patent publication US20250042994A1 (HAINAN SIMCERE ZAIMING PHARMACEUTICAL, published 2025)

B1: F4.272.13 (antibody, human IgG1, V domains shown)
VH: QVQLKESGPGLVAPSQSLSITCTVSGFSLTDYGVSWIRQPPGKGLEWLGVIWGSETTFYNSALKSRLSISKDNSKSQLFLQMNSLQADDTAIYYCAKHHYYGGSFSMDYWGQGTSVTVSS
VL: DIQMTQTTSSLSASLGDRVTISCRASQDINNYLNWYQQKPDGTVKFLIYYTSRLHSGVPSRFSGSGSGTDYSLTISDLEQEDIATYFCQQGNTLPYTFGGGTKLEIK
notes: human-murine chimeric antibody, human IgG1
B2: F5.2.9 (antibody, human IgG1, V domains shown)
VH: QVTLKESGPGILQPSQTLSLTCSFSGFSLSTFGLGVGWVRQPSGKGLEWLAHIWWDDDKYYNPALKSRVTVSKETSKNQVFFKIANVDTADSATYYCARLSRGLRRDVVYAMDHWGQGTSVTVSS
VL: DIQMTQTTSSLSASLGDRVTISCRASQDISNYLNWYQQKPDGSVKLLISYVSRLQSGVPSRFRGSGSGTDYSLTISNLDQEDIATYFCQQGIAFPYTFGGGTKLDIK
notes: as for B1
B3: F5.3.6 (antibody, human IgG1, V domains shown)
VH: DVQLQESGPGLVKPSQSQSLTCSVTGYSITSGYYWNWIRQFPGNKLEWMGYISYDGSNNYNPSLKNRISITRDTSKNQFFLKLNSVTTEDTVTYYCARAPLTGDRYWYFDVWGTGTTVTVSS
VL: DIVLTQSPASLAVSLGQRATISCRASQSVSTSSYSYMHWYQQKPGQTPKLLIKYASNLKSGVPARFSGSGSGTDFTLNIHPVEEEDTATYYCQHSWEIPPTFGGGTKLEIK
notes: as for B1
B4: F5.8.6 (antibody, human IgG1, V domains shown)
VH: QVQLHQPGAELVMPGASVTLSCKASGYTFTSYWMHWVKQRPGQGLEWIGEIDPSDSYTTYDQKFKGKATLTVDKFSSTAYMQFSSLTSEDSAVYYCARLTGNHLDYWGQGTTLTVSS
VL: DIVMTQSHKFMSSSVGDRVSITCKASQDVSPAVAWYQQKPGQSPKLLIYSTSYRNTGVPDRFTGSGSGTDFTFTISSVQAEDLAVYYCQQHYSIPLTFGAGTKLELK
notes: as for B1
B5: F5.10.6 (antibody, human IgG1, V domains shown)
VH: DVQLQESGPGLVKPSQSLSLTCSVTDYSITSGYYWTWIRQFPGNKLEWMGYISYDGSTNYNPSLKNRFSITRDTSKNQFFLKLNSVIIEDTATYYCARDRMSTTWYFDVWGTGTTVTVSS
VL: DIVLTQSPASLAVSLGQRATISCRASESVDNYGISFMHWYQQKPGQPPKLLIYRASKTESGIPARFSGSGSRTDFTLTINPVETDDVATYYCQQSNKYPRTFGGGTKVEIK
notes: as for B1

Key:
[1] = target: T1, monkey CD19 on HEK293T-monkey CD19 cells (monkey); assay: FACS on HEK293T-monkey CD19 cells
T1 construct: whole, on cells
Protocol: (§1) After the digestion was terminated, the cells were washed 2 times with a PBS buffer; and for suspension cell Raji, the supernatant of the medium was discarded by directly centrifugation, and the cell pellet was washed 2 times with PBS. After counting the cells in the previous step, the cell pellet was resuspended with [PBS+2% (w/w) BSA] blocking solution to 2×10⁶ cells/ml, and added to a 96-well FACS reaction plate at 50 μl/well, and then the sample to be tested was added at 50 μl/well, and incubated on ice for 2 h. The obtained mixture was centrifuged and washed 3 times with a PBS buffer. […] The obtained mixture was centrifuged and washed 5 times with a PBS buffer, and FACS (FACS Canto™, purchased from BD Company) was used for detection and result analysis. Data analysis was performed by software (FlowJo) to obtain the mean fluorescence intensity (MFI) of the cells. And then software (GraphPad Prism8) was used for analysis, data fitting, and EC50 value calculation. […] The same method was used to detect the binding of the chimeric antibodies to endogenous CD19-negative cells, MoLT4 cells (purchased from ATCC, CRL-1582), and CHO-K1 cells.
HEK293T-monkey CD19 cells were subjected to FACS detection and data analysis according to the method in example 5.2. […] The same method was used to detect binding of the chimeric antibodies to HEK293T cells.

[2] = target: T2, human CD19 on CHO-K1-human CD19 cells (human, UniProt P15391 20-556); assay: FACS on CHO-K1-human CD19 cells
T2 construct: whole, on cells; also called CHO-K1-human CD19-2C8
T2 sequence (looked up): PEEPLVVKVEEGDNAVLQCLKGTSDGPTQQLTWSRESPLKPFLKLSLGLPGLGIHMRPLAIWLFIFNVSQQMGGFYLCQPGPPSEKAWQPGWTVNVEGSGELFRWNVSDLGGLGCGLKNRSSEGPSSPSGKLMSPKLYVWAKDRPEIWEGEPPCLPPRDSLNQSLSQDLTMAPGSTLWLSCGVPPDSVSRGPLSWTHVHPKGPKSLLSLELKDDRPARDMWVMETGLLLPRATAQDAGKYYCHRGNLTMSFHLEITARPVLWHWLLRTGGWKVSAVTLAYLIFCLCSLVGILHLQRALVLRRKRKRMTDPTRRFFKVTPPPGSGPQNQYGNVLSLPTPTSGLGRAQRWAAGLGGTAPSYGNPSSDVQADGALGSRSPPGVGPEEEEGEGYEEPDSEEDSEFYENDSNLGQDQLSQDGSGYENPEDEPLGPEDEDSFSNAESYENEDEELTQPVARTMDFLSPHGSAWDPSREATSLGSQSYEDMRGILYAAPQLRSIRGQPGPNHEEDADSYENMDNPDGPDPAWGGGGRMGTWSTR
Text: as §1, with “The desired cells were scale-up cultured in a T-75 cell culture flask to the logarithmic growth phase. For the adherent cell CHO-K1, the medium was aspirated, the cells were washed 2 times with a PBS buffer, and then digested with trypsin. After the” for “After the”

human CD19 on Raji cells = target: T3, human CD19 on Raji cells (human, UniProt P15391 20-556); assay: FACS on Raji cells
T3 construct: whole, on cells
T3 sequence (looked up): T2 sequence (looked up)
Text: as §1, with “The desired cells were scale-up cultured in a T-75 cell culture flask to the logarithmic growth phase. For the adherent cell CHO-K1, the medium was aspirated, the cells were washed 2 times with a PBS buffer, and then digested with trypsin. After the” for “After the”

[3] = target: T4, cynomolgus monkey CD19 on peripheral blood B cells (cynomolgus monkey (Macaca fascicularis), UniProt A0A2K5W8L9 20-557); assay: FACS, cynomolgus PBMC, CD20+ B cells
T4 construct: whole, on cells; also called cynomolgus monkey B cells
T4 sequence: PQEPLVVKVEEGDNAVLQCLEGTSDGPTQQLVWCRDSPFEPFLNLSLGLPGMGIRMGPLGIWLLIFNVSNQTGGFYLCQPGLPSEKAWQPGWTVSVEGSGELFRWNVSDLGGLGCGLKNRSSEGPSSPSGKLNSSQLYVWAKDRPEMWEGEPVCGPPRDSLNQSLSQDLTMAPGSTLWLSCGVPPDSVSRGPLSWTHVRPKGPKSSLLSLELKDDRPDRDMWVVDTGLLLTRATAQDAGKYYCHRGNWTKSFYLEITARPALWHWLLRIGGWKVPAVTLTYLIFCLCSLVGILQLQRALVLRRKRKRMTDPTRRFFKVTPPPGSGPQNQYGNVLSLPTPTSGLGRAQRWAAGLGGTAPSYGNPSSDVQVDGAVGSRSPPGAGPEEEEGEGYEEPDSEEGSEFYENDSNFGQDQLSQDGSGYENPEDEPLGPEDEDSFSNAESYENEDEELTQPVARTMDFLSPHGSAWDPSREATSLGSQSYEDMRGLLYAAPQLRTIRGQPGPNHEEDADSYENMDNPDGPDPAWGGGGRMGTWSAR
Protocol: The monkey peripheral blood mononuclear cells were extracted from fresh cynomolgus monkey peripheral blood (purchased from Shanghai Medicilon Inc.) according to the instructions of Ficoll-Paque Plus (purchased from GE Healthcae, catalog number: 171440-02). After the cell suspension was centrifuged, the cells were resuspended in PBS containing 1% BSA, and then the cells were counted. […] The mixture was incubated for 1 h at room temperature. After washing the cells three times, APC-labeled secondary antibody anti-human IgG Fc (catalog number: 409306, purchased from Biolegend) was added. After incubation at room temperature in the dark for 30 minutes, the cells were washed 5 times, gently resuspended with PBS containing 1% BSA, and detected and analyzed by FACS (FACS Canto™, purchased from BD Company), in which CD20 was used as a marker of B cells to gate the CD20-positive B cell population, the proportion of the chimeric antibody-labeled positive cells was analyzed, and the proportion of the chimeric antibody positive cell population to B cell population was calculated after treatments with the chimeric antibodies at the concentrations of 100 nM, 10 nM and 1 nM, respectively.

Row | Binder | EC50 [1] | Maximum mean fluorescence intensity [1] | EC50 [2] | Maximum mean fluorescence intensity [2] | EC50 (human CD19 on Raji cells) | Maximum mean fluorescence intensity (human CD19 on Raji cells) | Proportion of chimeric antibody positive cells to B cells (%) at 1 nM [3] | Proportion of chimeric antibody positive cells to B cells (%) at 10 nM [3] | Proportion of chimeric antibody positive cells to B cells (%) at 100 nM [3]
1 | B1 | 3.86 nM | 40500 | 0.77 nM | 55300 | 0.81 nM | 27600 | 1% | 2% | 9%
2 | B2 | 2.82 nM | 81500 | 1.02 nM | 34000 | 2.79 nM | 17600 | 93% | 98% | 98%
3 | B3 | 20.7 nM | 26100 | 3.62 nM | 46900 | 3.19 nM | 22400 | 2% | 7% | 12%
4 | B4 | 5.7 nM | 43800 | 3.5 nM | 53600 | 1.26 nM | 27300 | 5% | 13% | 18%
5 | B5 | 4.98 nM | 99900 | 2.6 nM | 47700 | 1.34 nM | 22100 | 61% | 97% | 99%
